Test results as given in the supplement of paper PMC12636428.

Test system: Saccharomyces cerevisiae
Assay: transcriptional activation domain activity (GFP:mCherry ratio, weighted mean of sorted bins, harmonized to initial dataset scale) (arbitrary fluorescence ratio units); higher = stronger transcriptional activation
Details: beta-estradiol 1 µM; induction time 4 h
Protocol: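 53-aa protein tiles (fungal proteins plus yeast TF control tiles) fused C-terminally to a DBD-estrogen-binding domain-mCherry synthetic TF, integrated in S. cerevisiae (URA3 locus) with a GFP reporter. Cells were induced with 1 uM beta-estradiol for 4 h at 30 C, FACS-sorted into 8 bins by GFP:mCherry ratio and barcodes sequenced. Activity is the read-weighted mean bin fluorescence (GFP:mCherry), averaged over barcodes (median 12); tiles under 50 reads were discarded. New active-learning values were harmonized by linear fit onto the scale of the initial (Hummel et al.) dataset. The assay saturates at low and high signal.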

| Sequence | transcriptional activation domain activity |
| --- | --- |
| MWLLHFSFLRVLPLFLLMLRCLLLAICIVTYINGPTLVFSHPLITIYSLTLLA | 56200 |
| TPKKAKKSAERVDDSDASDDGDGYGGGGGEDGRKRAAKPKKGKRAAAGGGSAG | 26200 |
| TSLVVENGNGNGSGRGRKKRGRDGGGGGRGGGGGRGGGGEEDGLVGGAGAGGG | 25000 |
| EPERKQSRRRQSRGRGRKGVADSDTESVPRSDVSASGGRRNRQRQRQKGGKQQ | 48900 |
| YIKVLVAVLFVLDTLHVYYLSATFWVVCIRGRLDISGLTVLPWQTPASILMTV | 42300 |
| MCGLVFLFLFPFVFSSFIGGVAIFFFSYFFYFIYFILQHTRILTCTWSVFLLF | 75400 |
| DDNAGDGSLSSVVKVWLEGLTPSGRVEIFGRRNPPPVVRFLLLLVVSRRIGSL | 58600 |
| MVSCYIPLLIGFLGLVGPVLSRFFFLFSLFSWLIGRLVLYLILFLSSLCHGLG | 30300 |
| SDNQPDFVDFQELLDNDTLGNDLLETTAVLKEFELLHDDSVSATATSNEIDLS | 115000 |
| ITVFNYTVYDIISPTGTNYLAFMCWIGLWSLVFHWILAITNCCNWLRYVTRFP | 32700 |
| WRGRLVQRRSNDHEIDFVPYKTIYGGFWSHVNPSRLAVPRYLNIFRIIVWLFF | 54400 |
| EEEEEEEGGETKKKRRRAASAAAKGRKGGRKSTASEEDEVVGGEESENRASKK | 25400 |
| MDIYGSCICPGGLALGEFFYFLFFLVLSSYYYYFLFSFLFLFSLFLSFVVWRF | 49700 |
| MDKFRVLRLVLFRWWLFALCLIRFEVMEALLIHSPRFFEKLILVRTNLYLLCI | 50100 |
| VKKAAEDGEDEAEEKPAPKAKRGRKKAELDEDDEEEAQPAKKKAKKAAPKAAA | 21400 |
| ERVIGGIQEDLLLIKTFLTRLSLSHHIHNFHADSWSLGHLASLSWYSFMVWFL | 80000 |
| MAPQRRPAAEVISSDSDDEAARPTGSAATRSAGGGGAGGGRRIVLTGRGNNSS | 20400 |
| MEGLVVCSVWIFSCVWSLWLALCIWIFCLFVGVWLVRIWRGPGLYLLFFFFFL | 71000 |
| MPNLGLRREWYKGDFSVKYTQLTLIYLVMCVWFPSCLGGYMLTLQYIMLLLIM | 68600 |
| AKNLKYLFKVVLSMKGVPSFESSCKIKLLGIHFYYDQVYVYSLSMPMWDVFVF | 73300 |
| QESIPHQVGFSTPQLTAQQLIENAIESGVVDLETLDLPPFLSLDGLPPASSSA | 116000 |
| MGCFFCYCSIVLFRSSLYIISFFLLFFFLCFLFFYHIWVGVLFPSIFPLFYIR | 65400 |
| ILLMELILHTVYCVAISKWGHWEAFSVYEISLIGYMRLSFIWLKLLVIWRFAR | 88100 |
| EKLVEEVQETPKDKKKRKRDVEAEDVEASAKSEKKLKKKKSKSSAEEAAPADA | 30900 |
| EGAADGRDEGEKSKVQKVGKACVYCQRSHMTCDESRPCKRCVSRKIADLCHDR | 29900 |
| YNIRAKGFNIFNITISVGLIFNQYVNPIALAVLTWKYYVVYCAWLLCEVLFLY | 81900 |
| ARGGEKKRREPGRGKRRTGGEERGGRRKTRRANAGETGGERRPRGATPGRKPA | 38500 |

| Sequence | transcriptional activation domain activity |
| --- | --- |
| ENEDDAFGALNYNSLDATTMSAFDNNVDPFNILKSSPAQDQQFIKPSMMLSDN | 77200 |
| ARVQVNFWFFLFVYYGFYNLTALMWITKVFNLYSLNWWPSTMGFPLTITLIAI | 55300 |
| GEAGEAGEAGAEGTATEEREEEEEQQQKKEERKRKRKRKQQQGSGKVTVAAAK | 45000 |
| EEAAVESEAPKKKGRAKRVKPEPEVDDEPAVEQPKKKGRVKKAKVEPEPEADE | 46900 |
| YIATGRGFATTRISFSILYSRFAGPSIYMGMRNLLLLLYATIAIWMPHLIYFW | 48100 |
| YNVWILFRHLVDLILLNDFVAYSLFGFSWMQFSPNHSTFFHVLRWIGGWSLVG | 69200 |
| KDRKEKAEEKSGEEDRGKREDGAAEGEEREEVKRSAARKPKTVPAAASKKRPK | 34600 |
| KKEEVKQEPAAPTPAPAPAPTGASSDRGGRGQGRGRARGDSSRGGGGRAAAPP | 38000 |
| VGSWTFGSIMVFGFSYLALTVLPNLCLNCPYSTPVSEMSWHLSHRLLLFILLL | 31800 |
| RSSLSSPPCPRSRRRMRVRSSTTTSTSPPARSSSADRTRPTSTTTAARPPACP | 22000 |
| KVNTNNDVNENNDLWNSYLQSMDDTTGKNSGNYQQVDNDDNMSLLNLPILEET | 90400 |
| GETVFYKGQGKKRQEIRAPLRRGMALLHRHGHECLLHEGTQVLKGIKYVLRSD | 54600 |
| MPNAGIWCARWFIPLLFLPLPSASPYFLTVFIFSLIVQARPCFYCILMLTALF | 58200 |
| LVDVFGRIESCFQRIGIYTRVPPTTEMMDMIIQIMVEVLTILGIATKEMKQSR | 63000 |
| MYILTIIPFFKHMSFFSFFLSCFFMSLLIVLLLLLLLLFSLLLLLLFFFPRPL | 54400 |
| AHVGVGISGVEGLQAARSADIAISQFRYLKKLLLVHGAWSYRRLSKLILYSFY | 82600 |
| DEEGRKRGGEREKGQHAGDERRRRRRRGEREGRERQKEGRRGPGRQSKDGKEG | 49500 |
| AVEARFVTPQDPVLIQDDGSRLPPVPLEEAYKLNVLRREVIERAGSVAKAIEG | 63700 |
| LVLRSVILSLMVFLVIFCSEYFLFPFCHSICCYGYIYILIDSWVSFSLLVFFS | 65700 |
| SLDLEILEELEKLISAQEFSRNFTEDVDESLQSEIDLMNYDNEALNQLMAIDL | 137000 |
| GGNIHIRSLFIIAMVFLFFGLVLLTIGFFSDFRKSWFVWRLRTCWLWANGTRF | 57800 |
| WETIGTILYLFYVFTFLRLRFFLLLFYLYELTTMISLTIYIILYTLLFYFSCY | 41200 |
| SLILVTYNTSHIACFYLLPQPHYFHLTSFLFLSIFFFLFSSLEHGSSFLAFFH | 52500 |
| RASTTSPTCSGTSTSARGRGAACSRGASTSGRCTRSSRRTRGSRSGTATSTTR | 33600 |
| GEVSEAEANGATTQAEDGATPAEGADKKKKKKKARKSKKAADAAAGGAEKPAE | 17900 |
| MRRLPTAMVSCFGVYAVSHNLSLPFVSSLFPCFIQFCARIILFSLVGYSFWSL | 74500 |
| GIISRLVRHAHEMSYITSPLCELAAMLSINWWVKRPFIYFELFGYIRMVLLQS | 86400 |

| Sequence | transcriptional activation domain activity |
| --- | --- |
| ELLLLWYIYFLGIQYAQDFCQYKKMLILTEDTMWGWDLYSFYNSIVFHGTGVP | 75000 |
| VIGGGATGSGVAVDAASRGLKVALVERDDFSSGTSSKSTKLVHGGVRYLQKAV | 69700 |
| MFYFLLLYQSIVFLPYIFFSQFLIWVWCGLGREPGWHLEHGVYRYRWVRILSI | 39300 |
| STFGKYVHCRLLEGNTGMKIPQAAVIALIFRFLEKLVNTRLAVISRRWAMVTL | 67000 |
| MMFFFFFLVSFIYFWIGAPVGFFILKIKFVMLDVQSLHLAIFLICPHLCFYVM | 54400 |
| MHKCCLLDFLMLSTNYADVFYFHKLCIILTSFFSRLNPLLSIGLNLLLFCLLI | 57000 |
| MKEPVDDNVLQEPVPFEDFKFSFGMDPDFSFPLEPTLPTPQLSFMQDPFLLFP | 116000 |
| MNLSRVFLKVRAIAFSCISLLSFLWIILLCLMLYYRWDESDHSEHSLLIILLL | 45100 |
| GKGEKDSKDNEKGEGEKKGENRRGRRRGGRGRGGGGDKDKENNKDGGGGRGEK | 30500 |
| LQQTKRQHSAPSQISANENNIYNLGTLEEFVSSGDLTDLYHTLWNDNTSYPFL | 128000 |
| RLKLFIMVVFCLGTIHEYALIGMYWSILISCRRSMSLECTTKLPWQMVLGVFM | 49800 |
| SKWTTVDADDDLMRTFIRAYFLYEYDWFTFFHKDYFLDDMLAGSSTFCSPLLV | 42000 |
| EKGNKRNDEEKGRGGEGRSTGRERREAKNGSAEGEGRERKQRRDGGEAGEGGT | 45400 |
| MLVALCTYMIFNYYFFNFLLLFIFLYFTSYIVLSSSYSLVFISLIINSDFLFL | 57500 |
| GHVRSHNDERPFACGWAGCERAFARQHDCRRHEQRHARDLEREREREFACAGC | 38100 |
| MPLMIIFRFTIFYFYFVSIFFFLFLLLVGEFFFLLSFFFFLSFVFFLFTISYF | 37100 |
| SGSAAGPSSNAAEKETKEKSGQRRRGRRGGGGGGGGGGGDKNAATGTSQGASG | 35200 |
| MEWLLHTVYVVAIKDTRAWGGFSPFQMSMVGYFNLKLIWLKLLIIWRFFRLWA | 76000 |
| EEEPATKKQKTDDAAATTNGDAKPKGKPGRPKKAESEKKSPAKKRDPKKAATA | 33700 |
| FFFFVIFSLFHLPFACIFRFFPNDLFACYLYSPFFFPIDFCPFALFPPFFLSF | 59500 |
| PSGGLFGNNNASTTTGGIGLFGNNNAAASTGGGLFGKPAASTTTATTGGLFGA | 17400 |
| RTILLASYIFSNIFVCLIVLNDSLKILWWLGDSYWHKIWFFRIWLWANSISFL | 74800 |
| GGRGGGRGGRGGGGRGGRDRDGGRGGGRGRGGRGGGEGEEVVGTEGKDGGAEA | 18300 |
| MHNSRSSFLVSCFFIYFFSLLVHCEGVLILTPIPFQNHLVSILECFLFYLFLF | 51600 |
| MILRAFFLLTVYFVCSPFFFLIIYLLFYDRPDSTLSWIWIWIHTFLPSLLFPS | 42500 |
